Results as given in patent publication US10822723.

How the values were obtained:
[1] = molecular target: GST-iBox, recombinant 38 amino acid Inka box, Inka1 (166-203) [GST: P08515]
[2] = molecular target: 13aa synthetic peptide of the Inka1 iBox-C with Pro(0)Ser substitution
[3] = molecular target: 13aa synthetic peptide of the PAK4 AID with Pro(0)Ser substitution
[4] = molecular target: 13aa synthetic peptide of the Inka1 iBox with Pro(0)Ser substitution

Row | Protein | kinase activity, phosphorylation of GST-Raf13 (in vitro kinase assay) [1] | phosphorylation of synthetic 13mer peptides in an array [2] | phosphorylation of synthetic 13mer peptides in an array [3] | phosphorylation of synthetic 13mer peptides in an array [4]
1 | 6His-PAK4cat, recombinant catalytic domain of PAK4 (286-591) (protein) PPGPRSPQREPQRVSHEQFRAALQLVVDPGDPRSYLDNFIKIGEGSTGIVCIATVRSSGKLVAVKKMDLRKQQRRELLFNEVVIMRDYQHENVVEMYNSYLVGDELWVVMEFLEGGALTDIVTHTRMNEEQIAAVCLAVLQALSVLHAQGVIHRDIKSDSILLTHDGRVKLSDFGFCAQVSKEVPRRKSLVGTPYWMAPELISRLPYGPEVDIWSLGIMVIEMVDGEPPYFNEPPLKAMKMIRDNLPPRLKNLHKVSPSLKGFLDRLLVRDPAQRATAAELLKHPFLAKAGPPASIVPLMRQNRTR | is a potent of PAK4cat inhibitor in vitro | Inka1-derived sequences were significantly better substrates | The AID-based peptide was phosphorylated as efficiently as Raf1 Ser338 | Inka1-derived sequences were significantly better substrates
2 | 6His-PAK1 (activated), PAK1 (1-545) (protein) MSNNGLDIQDKPPAPPMRNTSTMIGAGSKDAGTLNHGSKPLPPNPEEKKKKDRFYRSILPGDKTNKKKEKERPEISLPSDFEHTIHVGFDAVTGEFTGMPEQWARLLQTSNITKSEQKKNPQAVLDVLEFYNSKKTSNSQKYMSFTDKSAEDYNSSNALNVKAVSETPAVPPVSEDEDDDDDDATPPPVIAPRPEHTKSVYTRSVIEPLPVTPTRDVATSPISPTENNTTPPDALTRNTEKQKKKPKMSDEEILEKLRSIVSVGDPKKKYTRFEKIGQGASGTVYTAMDVATGQEVAIKQMNLQQQPKKELIINEILVMRENKNPNIVNYLDSYLVGDELWVVMEYLAGGSLTDVVTETCMDEGQIAAVCRECLQALEFLHSNQVIHRDIKSDNILLGMDGSVKLTDFGFCAQITPEQSKRSTMVGTPYWMAPEVVTRKAYGPKVDIWSLGIMAIEMIEGEPPYLNENPLRALYLIATNGTPELQNPEKLSAIFRDFLNRCLEMDVEKRGSAKELLQHQFLKIAKPLSSLTPLIAAAKEATKNNH | does not affect PAK1 |  |  | 
